# Source: US20210292396A1
# Tests used:
# Test in all cases: cell-based or functional assay
# [1] = target: HIV Env of isolate CNE30 (HIV)
# [2] = target: Env of HIV isolate TH023.6 (clade AE) (HIV)
# [3] = target: HIV Env of isolate T33-7 (HIV)
# [4] = target: Env of HIV isolate SO18.18 (clade C) (HIV)
# [5] = target: HIV Env of isolate 269-12 (HIV)
# [6] = target: HIV Env of isolate BG1168.01 (HIV)
# [7] = target: Env of HIV isolate DU422.01 (clade C) (HIV)
# [8] = target: HIV Env of isolate X1193.c1 (HIV)
# [9] = target: HIV Env of isolate X2278.C2.B6 (HIV)
# [10] = target: Env of HIV isolate 620345.c1 (clade AE) (HIV)
# [11] = target: Env of HIV isolate BJOX010000.06.2 (clade AE) (HIV)
# [12] = target: HIV Env of isolate CAP244.D3 (HIV)
# [13] = target: Env of HIV isolate T250-4 (clade AG) (HIV)
# [14] = target: Env of HIV isolate X2278.C2.B6 (clade B) (HIV)
# [15] = target: Env of HIV isolate NKU3006.ec1 (clade D) (HIV)
# [16] = target: HIV Env of isolate CNE8 (HIV)
# [17] = target: HIV Env of isolate 3301.v1.c24 (HIV)
# [18] = target: Env of HIV isolate X1254.c3 (clade G) (HIV)
# [19] = target: HIV Env of isolate 426c (HIV)
# [20] = target: HIV Env of isolate CNE4 (HIV)
# [21] = target: HIV Env of isolate X1254.c3 (HIV)
# [22] = target: Env of HIV isolate RHPA.7 (clade B) (HIV)
# [23] = target: Env of HIV isolate BR07.DG (clade B) (HIV)
# [24] = target: HIV Env of isolate 6644.v2.c33 (HIV)
# [25] = target: HIV Env of isolate ZM53.12 (HIV)
# [26] = target: HIV Env of isolate Q23.17 (HIV)
# [27] = target: Env of HIV isolate 96ZM651.02 (clade C) (HIV)
# [28] = target: Env of HIV isolate 3718.v3.c11 (clade A) (HIV)
# [29] = target: HIV Env of isolate 928-28 (HIV)
# [30] = target: Env of HIV isolate T266-60 (clade AG) (HIV)
# [31] = target: Env of HIV isolate WITO.33 (clade B) (HIV)
# [32] = target: Env of HIV isolate BL01.DG (clade B) (HIV)
# [33] = target: HIV Env of isolate ZM55.28a (HIV)
# [34] = target: Env of HIV isolate CAP210.E8 (clade C) (HIV)
# [35] = target: HIV Env of isolate CAAN.A2 (HIV)
# [36] = target: Env of HIV isolate 271-11 (clade AG) (HIV)
# [37] = target: HIV Env of isolate 25710-2.43 (HIV)
# [38] = target: Env of HIV isolate 001428-2.42 (clade C) (HIV)
# [39] = target: HIV Env of isolate Q769.h5 (HIV)
# [40] = target: HIV Env of isolate 0815.v3.c3 (HIV)
# [41] = target: HIV Env of isolate KER2018.11 (HIV)
# [42] = target: HIV Env of isolate 0439.v5.c1 (HIV)
substance,measurement,setting,value
PGT121 (antibody),"IC80, pseudovirus neutralization",[1],0.296 µg/mL
same,"IC50, pseudovirus neutralization",[2],> 50 µg/mL
same,IC80,[3],> 50 µg/mL
same,"IC50, pseudovirus neutralization",[4],0.00533 µg/mL
same,IC80,[5],0.627 µg/mL
same,IC80,[6],> 50 µg/mL
same,"IC50, pseudovirus neutralization",[7],0.062 µg/mL
same,"IC80, pseudovirus neutralization",[8],0.147 µg/mL
same,IC80,[9],0.072 µg/mL
same,"IC50, pseudovirus neutralization",[10],> 50 µg/mL
same,"IC50, pseudovirus neutralization",[11],> 50 µg/mL
same,"IC80, pseudovirus neutralization",[12],> 50 µg/mL
same,"IC50, pseudovirus neutralization",[13],0.00433 µg/mL
same,"IC50, pseudovirus neutralization",[14],0.026 µg/mL
same,"IC50, pseudovirus neutralization",[15],> 50 µg/mL
same,IC80,[16],> 50 µg/mL
same,IC80,[17],0.05 µg/mL
same,"IC50, pseudovirus neutralization",[18],0.0347 µg/mL
same,"IC80, pseudovirus neutralization",[19],> 50 µg/mL
same,IC80,[20],25.3 µg/mL
same,"IC80, pseudovirus neutralization",[21],0.106 µg/mL
same,"IC50, pseudovirus neutralization",[22],0.0357 µg/mL
same,"IC50, pseudovirus neutralization",[23],0.132 µg/mL
same,"IC80, pseudovirus neutralization",[24],0.14 µg/mL
same,"IC80, pseudovirus neutralization",[25],0.00767 µg/mL
same,IC80,[26],0.0267 µg/mL
same,"IC50, pseudovirus neutralization",[27],0.0213 µg/mL
same,"IC50, pseudovirus neutralization",[28],0.559 µg/mL
same,IC80,[29],29.9 µg/mL
same,"IC50, pseudovirus neutralization",[30],0.143 µg/mL
same,"IC50, pseudovirus neutralization",[31],0.479 µg/mL
same,"IC50, pseudovirus neutralization",[32],19.6 µg/mL
same,"IC80, pseudovirus neutralization",[33],0.216 µg/mL
same,"IC50, pseudovirus neutralization",[34],4.28 µg/mL
same,IC80,[35],0.0503 µg/mL
same,"IC50, pseudovirus neutralization",[36],> 50 µg/mL
same,"IC80, pseudovirus neutralization",[37],0.066 µg/mL
same,"IC50, pseudovirus neutralization",[38],0.0337 µg/mL
same,IC80,[39],> 50 µg/mL
same,IC80,[40],0.112 µg/mL
same,IC80,[41],> 50 µg/mL
same,IC80,[42],> 50 µg/mL
